Measured values as given in patent US9085636B2, “CETP fragments” (AFFIRIS AG, priority 2011, dated 2015).
No end group written: not given here.

Tests used:
[1] = molecular target: T1, recombinantly expressed human CETP N-terminally fused to GST (GST-CETP) (Homo sapiens, UniProt P11597); experiment: Protein ELISA: anti-protein titers of sera from vaccinated mice; assay type: in vivo, Balb/c mice; settings: for anti-protein titers: median values (n = 5), Balb/c mice s.c. three times 15 μg net peptide coupled to KLH, Alum, GST-CETP ELISA, titre = serum dilution at 50% of ODmax
T1 construct: not only antibodies directed to the peptide itself but also to the mature CETP protein; GST (N); made in house
T1 sequence (P11597 18-493): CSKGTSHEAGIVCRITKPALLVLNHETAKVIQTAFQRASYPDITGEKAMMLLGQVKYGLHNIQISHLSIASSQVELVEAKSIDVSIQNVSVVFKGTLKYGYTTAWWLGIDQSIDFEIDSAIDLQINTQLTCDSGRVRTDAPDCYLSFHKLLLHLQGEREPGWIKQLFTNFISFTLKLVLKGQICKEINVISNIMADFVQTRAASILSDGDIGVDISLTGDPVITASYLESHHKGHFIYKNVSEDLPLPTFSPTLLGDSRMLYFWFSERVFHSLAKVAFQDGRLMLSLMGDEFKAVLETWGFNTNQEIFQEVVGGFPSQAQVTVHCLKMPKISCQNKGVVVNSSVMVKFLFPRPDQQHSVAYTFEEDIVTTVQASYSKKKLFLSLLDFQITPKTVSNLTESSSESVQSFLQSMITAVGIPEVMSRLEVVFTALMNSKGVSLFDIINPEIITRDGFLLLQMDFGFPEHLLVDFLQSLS
Method: (§1) The peptides were conjugated via the heterobifunctional linker GMBS (4-Maleimidobutyric acid N-hydroxysuccinimide ester) to KLH (Keyhole Limpet Hemocyanin).
(§2) 15 μg of the peptides were suspended with aluminum hydroxide (end concentration of aluminum hydroxide was 0.2%). As buffer mannitol/phosphate was used.
(§3) 5 Balb/c mice were subcutaneously immunized. Mice had access to food and water ad libitum and were kept under a 12 h light/dark cycle. Age of mice at the beginning of experiments was usually 8 to 10 weeks.
(§4) Mice were injected three times in 2 week intervals with 15 μg of net peptide coupled to KLH and adsorbed to Alum as adjuvant in a volume of 1 ml in total via the s.c. route.
(§5) Blood was taken approximately 2 weeks after the final injection.
(§6) To determine the immunogenicity of the vaccines, 96-well Nunc-Maxisorb plates were coated with 1 μM of the respective peptides coupled to bovine serum albumin (BSA) in 0.1 M NaHCO3, pH 9.2-9.4. An irrelevant peptide was used as negative control. KLH was included as positive control and coated at a concentration of 1 μg/ml. Unspecific binding was blocked by incubation with blocking buffer (5% BSA in PBS). Appropriate serum dilutions were added to the wells, serially diluted 1:2 fold and incubated for approximately 1 hour at 37° C. On every ELISA plate a standard serum was included as internal control. Bound antibodies were detected by incubation with biotinylated goat anti-mouse IgG, followed by horseradish peroxidase coupled to Streptavidin. As substrate ABTS was added and the optical density (OD) at 405 nm was measured in a Microwell plate-reader. The titres were defined as the dilution of the serum where 50% of the ODmax in the assay are reached.
The antibodies induced by the vaccination were tested for their ability to bind to recombinantly expressed human CETP N-terminally fused to GST (“GST-CETP”) using the protocol described under “peptide ELISA”.

[2] = tested on: respective peptides coupled to bovine serum albumin (BSA); experiment: Peptide ELISA: anti-peptide titers of sera from vaccinated mice; assay type: in vivo; settings: median values (n = 5); Balb/c mice s.c. three times 15 μg net peptide coupled to KLH, Alum; titre = serum dilution at 50% of ODmax
Method: as §1, §2, §3, §4, §5, §6

[3] = molecular target: T2, CETP activity of human serum (Homo sapiens, UniProt P11597); experiment: CETP activity inhibition assay (Roar kit) with sera from vaccinated mice; assay type: biochemical; settings: n=5 mice per group; human serum as CETP source mixed with same amount of serum from vaccinated mice
T2 construct: Human serum was used as CETP source; from tissue; host or cells: human serum
T2 sequence (P11597 18-493): T1 sequence (P11597 18-493)
Method: as §3, §4, §5
CETP activity was determined with the Roar CETP activity assay kit (RB-CETP; Roar Biomedical) by measuring the transfer of a fluorescently labeled substrate according to the protocol provided by the manufacturer. […] Human serum was used as CETP source and was mixed with the same amount of serum from vaccinated mice together with donor and acceptor particles (components of the CETP activity assay kit).
Mouse sera containing CETP-inhibiting antibodies lead to a decrease of the signal in this assay. Sera from mice injected with irrelevant peptide served as negative control.

Substance	anti-protein titers [1]	no. of mice with antibodies inhibiting CETP activity [3]	anti-peptide titers [2]	formation of antibodies directed to mature CETP protein (in words) ([1]; vaccinated Balb/c mice, protein ELISA)
1 (YTTAWWLGIDQS) [compound 1]	800	3 of 5	70,000	–
2 (KAMMLLGQV) [compound 2]	0	–	66,000	–
6 (ESIQSFLQSMITA) [compound 6]	0	–	69,000	–
7 (YGYTTAWWLGIDQSID) [compound 7]	500	3 of 5	33,000	–
8 (TTAWWLGIDQS) [compound 8]	1,200	4 of 5	89,000	–
10 (AWWLGIDQS) [compound 10]	1,700	5 of 5	191,000	–
11 (WWLGIDQS) [compound 11]	1,100	5 of 5	330,000	–
12 (WLGIDQS) [compound 12]	0	–	153,000	–
15 (YTTAWWLGI) [compound 15]	300	0 of 5	111,000	–
16 (YTTAWWLG) [compound 16]	0	–	74,000	–
17 (YTTAWWL) [compound 17]	0	–	94,000	–
18 (TTAWWLGIDQ) [compound 18]	900	4 of 5	216,000	–
20 (TTAWWLGI) [compound 20]	300	–	124,000	–
21 (TAWWLGI) [compound 21]	0	–	99,000	–
22 (FPRPDQQHSV) [compound 22]	0	–	229,000	–
C-YTTAWWLGIDQS (CYTTAWWLGIDQS; also: conjugated to KLH carrier) [SEQ ID No. 1, CETP fragment AA101-112, N-terminal cysteine, conjugated to KLH]	–	–	–	leads to the formation of not only antibodies directed to the peptide itself but also to the mature CETP protein

Further lines, with some results ahead:

anti-protein titers [1]	no. of mice with antibodies inhibiting CETP activity [3]	Substance	anti-peptide titers [2]	formation of antibodies directed to mature CETP protein (in words) ([1]; vaccinated Balb/c mice, protein ELISA)
50	–	3 (LHLQGEREPGWIKQ) [compound 3]	97,000	–
0	–	4 (DEFKAVLETWG) [compound 4]	140,000	–
100	–	5 (GFNTNQEIFQEVVGGFP) [compound 5]	100,000	–
2,200	4 of 5	9 (TAWWLGIDQS) [compound 9]	173,000	–
1,200	1 of 5	13 (YTTAWWLGIDQ) [compound 13]	143,000	–
600	1 of 5	14 (YTTAWWLGID) [compound 14]	630,000	–
1,300	3 of 5	19 (TTAWWLGID) [compound 19]	114,000	–
